# Laboratory results reported in publication PMC11347137, “Cytosine analogues as DNA methyltransferase substrates”.
# B1: 30-dhaC / 30-5mC-down (dsDNA)
# DNA 1: CAGCATTATCACAGCGTTTACACAATAACC
# DNA 2: GGTTATTGTGTAAACGCTGTGATAATGCTG
# modifications: 5,6-dihydro-5-azacytosine at position 15 of strand 1 (written C); 5mC at position 15 of strand 2
# B2: 30-5mZ / 30-5mC-down (dsDNA)
# DNA 1: B1 DNA 1
# DNA 2: B1 DNA 2
# modifications: 5-methyl-2-pyrimidinone (5-methylzebularine) at position 15 of strand 1 (written C); 5mC at position 15 of strand 2
# Target: M.MpeI (called wild type) (Mycoplasma penetrans? (printed "M. …, UniProt Q8EVR5 1-395, Q68R;K71R;S295P))
# Assay: EMSA; 80 uM SAM, 1 mM DTT, 10 mM MgCl2; non-covalent complex among the most abundant; EMSA: 10 mM Tris-HCl pH 7.9, 50 mM NaCl, 10 mM MgCl2, 1 mM DTT, 80 uM SAM, 37 C 1 h, 1 uM DNA, 0.5-4 uM protein; covalent SDS-PAGE: 10 mM Tris-HCl pH 7.9, 50 mM NaCl, 160 uM SAM or sinefungin, +/-10 mM DTT, 37 C
# Settings: protein: recombinant; tags: C-terminal LEHHHHHH; label: 5' Cy3 or 5' 32P on strand 2; blunt
row,Binder,binding result
1,B1,binds
2,B2,binds
